We go through 17 molecules from patent US20200165335A1 (Seagen, published 2020).

Experiment [1] concerns the target T1, human LIV-1 (human, UniProt Q13433 29-755).
T1 construct: also called hLIV-1; Q13433
T1 sequence: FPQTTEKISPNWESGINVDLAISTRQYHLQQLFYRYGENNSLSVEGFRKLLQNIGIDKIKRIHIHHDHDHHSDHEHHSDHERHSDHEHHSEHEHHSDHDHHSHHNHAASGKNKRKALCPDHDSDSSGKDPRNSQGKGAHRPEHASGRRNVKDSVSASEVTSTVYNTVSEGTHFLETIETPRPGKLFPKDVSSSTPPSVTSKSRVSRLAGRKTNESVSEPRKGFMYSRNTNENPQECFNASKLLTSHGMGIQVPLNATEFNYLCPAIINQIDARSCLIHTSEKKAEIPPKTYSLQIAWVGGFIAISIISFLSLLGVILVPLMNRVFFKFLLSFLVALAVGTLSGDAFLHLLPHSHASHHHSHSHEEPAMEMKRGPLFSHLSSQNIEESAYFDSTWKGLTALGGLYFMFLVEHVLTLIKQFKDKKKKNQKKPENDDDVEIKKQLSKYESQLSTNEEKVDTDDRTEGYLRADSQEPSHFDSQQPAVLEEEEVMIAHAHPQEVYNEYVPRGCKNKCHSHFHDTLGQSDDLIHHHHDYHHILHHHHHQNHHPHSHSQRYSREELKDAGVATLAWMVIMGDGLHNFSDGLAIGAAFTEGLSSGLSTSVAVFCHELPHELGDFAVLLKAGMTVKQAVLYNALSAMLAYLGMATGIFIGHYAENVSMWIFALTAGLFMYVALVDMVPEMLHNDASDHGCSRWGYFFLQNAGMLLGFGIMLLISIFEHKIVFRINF
Briefly: saturation binding, flow cytometry, MCF7 cells. How it is done: (§1) 1×10⁵ antigen expressing cells (either MCF7 cells (ATCC) expressing human LIV-1, a transfected CHO cell line expressing human LIV-1 or a transfected CHO cell line expressing cyno LIV-1) were aliquoted per well of a 96-well v-bottom plates. […] Cells were pelleted and washed 3× with PBS/BSA. The cells were then pelleted and resuspended in 125 μL of PBS/BSA. Fluorescence was analyzed by flow cytometry, using percent of saturated fluorescent signal to determine percent bound and to subsequently calculate apparent Kd.
(In flow cytometry, cells or beads pass a laser one at a time.)

Experiment [2] deals with T1, human LIV-1. As to the kind of experiment: saturation binding of AF647-labelled antibody, flow cytometry, 293F (hLIV-1) cells.
Experiment [3] has as its target T2, human LIV-1 (UniProt Q13433 29-755).
T2 chain: T1 sequence
Briefly: saturation binding, flow cytometry on MCF7 cells; AF-labeled.

In experiment [4] the target is T1, human LIV-1. As to the kind of experiment: saturation binding, flow cytometry, comparison of the cell lines of Table 1. How it is done: as §1
The target in experiment [5] is T2, human LIV-1. As to the kind of experiment: competition binding on CHO hLIV1 cells.
Experiment [6] deals with T3, cynomolgus monkey LIV-1 (cynomolgus monkey, UniProt Q5R9M9 28-743 (Pongo abelii entry)).
T3 construct: Recombinant on transfected CHO cells; also called cyno LIV-1; cyLIV-1
T3 chain: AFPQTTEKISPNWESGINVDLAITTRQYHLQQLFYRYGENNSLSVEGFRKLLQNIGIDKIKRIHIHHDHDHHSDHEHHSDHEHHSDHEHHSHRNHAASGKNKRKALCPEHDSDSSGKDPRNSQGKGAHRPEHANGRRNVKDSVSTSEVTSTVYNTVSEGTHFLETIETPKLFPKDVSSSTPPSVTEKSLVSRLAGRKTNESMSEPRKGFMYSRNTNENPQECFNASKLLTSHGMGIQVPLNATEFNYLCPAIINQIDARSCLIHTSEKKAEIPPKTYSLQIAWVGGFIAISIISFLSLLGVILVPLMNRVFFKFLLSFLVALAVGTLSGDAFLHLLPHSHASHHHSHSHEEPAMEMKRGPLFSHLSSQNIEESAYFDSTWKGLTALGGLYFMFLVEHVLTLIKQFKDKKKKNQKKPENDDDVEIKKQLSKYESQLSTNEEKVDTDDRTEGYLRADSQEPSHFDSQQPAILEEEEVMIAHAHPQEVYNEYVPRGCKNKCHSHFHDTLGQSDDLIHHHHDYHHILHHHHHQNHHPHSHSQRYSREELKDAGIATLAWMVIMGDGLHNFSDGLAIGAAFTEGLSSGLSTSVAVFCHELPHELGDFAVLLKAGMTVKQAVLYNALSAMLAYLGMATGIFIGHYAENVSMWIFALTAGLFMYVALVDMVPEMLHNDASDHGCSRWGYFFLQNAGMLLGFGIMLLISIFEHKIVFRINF
As to the kind of experiment: saturation binding of AF647-labelled antibody, flow cytometry, CHO (cyLIV-1) cells. How it is done: as §1

Experiment [7] has as its target T1, human LIV-1. Briefly: saturation binding of AF647-labelled antibody, flow cytometry, MCF-7 (ATCC) cells, endogenous hLIV-1. The protocol:
as §1

Experiment [8] addresses T1, human LIV-1. Briefly: saturation binding of AF647-labelled antibody, flow cytometry, CHO (hLIV-1) cells. How it is done: as §1
Experiment [9] addresses T1, human LIV-1. Briefly: competition flow cytometry, CHO cells expressing recombinant LIV-1, vs 5 nM AF647-labelled BR2-22a. The protocol:
1×10⁵ CHO cells expressing recombinant LIV-1 in PBS were aliquoted into each well of a 96-well v-bottom plates on ice. […] Cells were pelleted and washed 3 times with PBS. The cells were then pelleted and resuspended in 125 μL of PBS/BSA. Fluorescence was analyzed by flow cytometery, using percent of saturated fluorescent signal to determine percent labeled humanized BR2-22a antibody bound and to subsequently extrapolate the EC50 by fitting the data to a sigmoidal dose-response curve with variable slope.
All permutations of these five heavy chains and six light chains were then tested in a competition assay compared with BR2-22a (see FIG. 17).

For experiment [10], the target named is T3, cynomolgus monkey LIV-1. As to the kind of experiment: EC50 determination, CHO cells expressing recombinant cyno LIV-1. The protocol: 1×10⁵ CHO cells expressing recombinant cyno LIV-1 in PBS were aliquoted in each well of a 96-well v-bottom plates on ice. […] Cells were pelleted and washed 3 times with PBS. The cells were pelleted and resuspended in 125 μL of PBS/BSA. Fluorescence was analyzed by flow cytometry, using percent of saturated fluorescent signal to determine percent labeled murine LIV-1 mAb bound and to subsequently extrapolate the EC50 by fitting the data to a sigmoidal dose-response curve with variable slope.

Experiment [11] deals with T1, human LIV-1. As to the kind of experiment: comparison of the EC50s of Table 3, CHO cells expressing human LIV-1. How it is done: (§2) 1×10⁵ CHO cells expressing recombinant human LIV-1 in PBS/BSA were aliquoted into each well of a 96-well v-bottom plates on ice. […] Cells were pelleted and washed 3 times with PBS/BSA. The cells were pelleted and resuspended in 125 μL of PBS/BSA. Fluorescence was analyzed by flow cytometry, using percent of saturated fluorescent signal to determine percent labeled murine LIV-1 mAb bound and to subsequently extrapolate the EC50 by fitting the data to a sigmoidal dose-response curve with variable slope.

Experiment [12] concerns the target T1, human LIV-1. As to the kind of experiment: competition flow cytometry, CHO cells expressing human LIV-1, vs 5 nM AF647-labelled BR2-14a. The protocol:
as §2

One may read the Kd as a measure of binding affinity in units of concentration. The EC50 is the concentration needed to bring the measured effect to its halfway point.

Where a chain is given by its changes, count along the chain named. In names and notes the source's numbering stands. Several values for one entry are separate records, joined by “and”; a condition that tells them apart may be missing. Identical values can stand only once.

B1: murine LIV-1 monoclonal antibody BR2-14a (antibody, V domains shown)
VH: QVQLQQSGAELVRSGASVKLSCTASGFNIEDYYMHWVKQRPKQGLEWIGWIDPENGDTEYAPTFQGKATMTADTSSNTAYLQLSSLTSEDTAVYYCNVHDAHYGTWFAYWGQGTLVTVSA
VL: DVLMTQTPLSLPVSLGDQASISCRSSQSIIRNDGNTYLEWYLQKPGQSPKLLIYRVSNRFSGVPDRFSGSGSGTDFTLKISRVEAEDLGVYYCFQGSHVPYTFGGGTKLEIKR
notes: Mouse monoclonal from hybridoma ATCC PTA-5705A; also called parental murine mAb; murine LIV-1 mAb
With B1, the Kd is 2.9 nM in experiment [1]; 2.7 nM in experiment [2]; 0.8 µg/mL and 5.8 nM in experiment [3]; 14 nM in experiment [6]; 2.4 nM in [7]; 12.5 nM in [8]. Besides, in experiment [4], the “fold lower dissociation constant for non-recombinant LIV-1 of a human cell line than for recombinant LIV-1” value is around 5 fold. In addition, in experiment [5], a half-maximal response (EC50) required 3.42 µg/mL.

B2: humanized BR2-22a antibody HALF (antibody, V domains shown)
VH: QVQLVQSGAEVKKPGASVKVSCKASGYTFTDYYMHWVRQAPGQGLEWMGWIDPENGDTEYGPKFQGRVTMTRDTSISTAYMELSRLRSDDTAVYYCARHNAHYGTWFAYWGQGTLVTVSS
VL: DVVMTQSPLSLPVTLGQPASISCRSSQSLLHSSGNTYLEWYLQRPGQSPKPLIYKISTRFSGVPDRFSGSGSGTDFTLKISRVEAEDVGVYYCFQGSHVPYTFGGGTKVEIKR
notes: also called hLIV-22 HA + hLIV-22 LF
Regarding B2, the EC50 in experiment [9] came out at 33.2 µg/mL.

B3: humanized BR2-22a antibody HELF (antibody, V domains shown)
VH: QVQLVQSGAEVKKPGASVKVSCKASGLNIEDYYMHWVRQAPGQGLEWIGWIDPENGDTEYGPKFQGKATMTADTSINTAYMELSRLRSDDTAVYYCTVHNAHYGTWFAYWGQGTLVTVSS
VL: B2 VL
notes: 15 backmutations; also called hLIV-22 HE + hLIV-22 LF; HELF historic control
B3: the EC50 in experiment [9] stood at 0.3 µg/mL.

B4: humanized BR2-14a antibody HBLB S239C (antibody, human IgG1, kappa, V domains shown)
VH: B2 VH with F29I, T30E, G61A, K63T, S77N, N100D
VL: DVVMTQSPLSLPVTLGQPASISCRSSQSIIRNDGNTYLEWYQQRPGQSPRRLIYRVSNRFSGVPDRFSGSGSGTDFTLKISRVEAEDVGVYYCFQGSHVPYTFGGGTKVEIKR
notes: also called LIV-14d; hLIV-14 HBLB S239C
Consider B4, for which the binding result in experiment [10] is recorded as “binds”. The EC50 in [5] worked out at 0.419 µg/mL.

B5: humanized BR2-22a antibody HELG (antibody, V domains shown)
VH: B3 VH
VL: B2 VL with L42Q, K50R
notes: also called hLIV-22 HE + hLIV-22 LG
As to B5, the EC50 in experiment [9] came out at 0.2 µg/mL.

B6: humanized BR2-22a antibody HCLD (antibody, V domains shown)
VH: B2 VH with R67K, V68A, R72A
VL: B2 VL with Y41F, L42Q, P51R
notes: also called hLIV-22 HC + hLIV-22 LD
With B6, in [9], the binding result was “no binding (tested: 0.038 nM to 600 nM tested)”.

B7: humanized BR2-22a antibody HELA (antibody, V domains shown)
VH: B3 VH
VL: B2 VL with Y41F, L42Q, K50R, P51R
notes: also called hLIV-22 HE + hLIV-22 LA
B7: the EC50 in experiment [9] is 68.2 µg/mL.

B8: humanized BR2-22a antibody HELE (antibody, V domains shown)
VH: B3 VH
VL: B2 VL with Y41F, L42Q, K50R
notes: also called hLIV-22 HE + hLIV-22 LE
B8: in experiment [9], the EC50 came to 25.1 µg/mL.

B9: humanized BR2-22a antibody HELC (antibody, V domains shown)
VH: B3 VH
VL: B2 VL with Y41F, K50R, P51R
notes: also called hLIV-22 HE + hLIV-22 LC
B9: the half-maximal effective concentration (EC50) in experiment [9] is 65.7 µg/mL.

B10: humanized BR2-22a antibody HCLC (antibody, V domains shown)
VH: B2 VH with R67K, V68A, R72A
VL: B2 VL with Y41F, K50R, P51R
notes: also called hLIV-22 HC + hLIV-22 LC
For B10, the binding result in [9] was “no binding (tested: 0.038 nM to 600 nM tested)”.

B11: humanized BR2-22a antibody HDLF (antibody, V domains shown)
VH: B2 VH with Y27L, A97T, R98V
VL: B2 VL
notes: also called hLIV-22 HD + hLIV-22 LF
Regarding B11, the EC50 in experiment [9] was 14.4 µg/mL.

B12: humanized BR2-22a antibody HFLF (antibody, V domains shown)
VH: B2 VH with Y27L, F29I, T30E, R98V
VL: B2 VL
notes: also called hLIV-22 HF + hLIV-22 LF
Turning to B12, the EC50 in [9] was 0.8 µg/mL.

B13: humanized BR2-22a antibody HGLF (antibody, V domains shown)
VH: B2 VH with Y27L, F29I, T30E, S77N, R98V
VL: B2 VL
notes: also called hLIV-22 HG + hLIV-22 LF
Consider B13, for which the EC50 in [9] stood at 0.4 µg/mL.

B14: humanized BR2-22a antibody HFLG (antibody, V domains shown)
VH: B2 VH with Y27L, F29I, T30E, R98V
VL: B2 VL with L42Q, K50R
notes: also called hLIV-22 HF + hLIV-22 LG
As to B14, in experiment [9], the EC50 was 0.8 µg/mL.

B15: humanized BR2-22a antibody HBLB (antibody, V domains shown)
VH: B2 VH with F29I, T30E, S77N
VL: B2 VL with L42Q, K50R, P51R
notes: Not the same molecule as HBLB of the BR2-14a series (hLIV14); also called hLIV-22 HB + hLIV-22 LB
For B15, the 50% effective concentration (EC50) in [9] turned out to be 4.9 µg/mL.

B16: humanized BR2-22a antibody HBLF (antibody, V domains shown)
VH: B2 VH with F29I, T30E, S77N
VL: B2 VL
notes: also called hLIV-22 HB + hLIV-22 LF
Turning to B16, in experiment [9], the EC50 came out at 6.5 µg/mL.

B17: humanized BR2-14a antibody HELE (antibody, V domains shown)
VH: B3 VH with L27F, G61A, K63T, T97N, N100D
VL: B4 VL with Y41F, R51L
notes: also called hLIV-1 HE + hLIV-1 LE
With B17, the “fold better binding than the next humanized antibody HBLF” value in [11] was at least 2 fold. In experiment [12], this molecule returned an EC50 of 0.3 µg/mL.
